From patent publication US20220040304A1, “A COMPOSITION FOR CANCER CELL DEATH AND ITS USE” (Industry-University Cooperation Foundation Hanyang …, priority 2018, published 2022)

B1: RLuc8.6-KR: fusion protein of RLuc8.6 and KillerRed without lead peptide, 69 kDa (protein)
chain: MRGSHHHHHHGMASMTGGQQMGRDLYDDDDKDPMASKVYDPEQRKRMITGPQWWARCKQMNVLDSFINYYDSEKHAENAVIFLHGNATSSYLWRHVVPHIEPVARCIIPDLIGMGKSGKSGNGSYRLLDHYKYLTAWFELLNLPKKIIFVGHDWGSALAFHYAYEHQDRIKAIVHMESVVDVIESWMGWPDIEEELALIKSEEGEKMVLENNFFVETLLPSKIMRKLEPEEFAAYLEPFKEKGEVRRPTLSWPREIPLVKGGKPDVVQIVRNYNAYLRASDDLPKLFIESDPGFFYNAIVEGAKKFPNTEFVKVKGLHFLQEDAPDEMGKYIKSFVERVLKNEQEFGGGMLCCMRRTKQVEKNDEDQKISEGGPALFQSDMTFKIFIDGEVNGQKFTIVADGSSKFPHGDFNVHAVCETGKLPMSWKPICHLIQYGEPFFARYPDGISHFAQECFPEGLSIDRTVRFENDGTMTSHHTYELDDTCVVSRITVNCDGFQPDGPIMRDQLVDILPNETHMFPHGPNAVRQLAFIGFTTADGGLMMGHFDSKMTFNGSRAIEIPGPHFVTIITKQMRDTSDKRDHVCQREVAYAHSVPRITSAIGSDED
modifications: pRSET-RLuc8.6-KillerRed
B2: RLuc8.6-KR-LP: fusion protein of RLuc8.6, KillerRed and lead peptide WLEAAYQRFL, 71 kDa (protein)
chain: MRGSHHHHHHGMASMTGGQQMGRDLYDDDDKDPMASKVYDPEQRKRMITGPQWWARCKQMNVLDSFINYYDSEKHAENAVIFLHGNATSSYLWRHVVPHIEPVARCIIPDLIGMGKSGKSGNGSYRLLDHYKYLTAWFELLNLPKKIIFVGHDWGSALAFHYAYEHQDRIKAIVHMESVVDVIESWMGWPDIEEELALIKSEEGEKMVLENNFFVETLLPSKIMRKLEPEEFAAYLEPFKEKGEVRRPTLSWPREIPLVKGGKPDVVQIVRNYNAYLRASDDLPKLFIESDPGFFYNAIVEGAKKFPNTEFVKVKGLHFLQEDAPDEMGKYIKSFVERVLKNEQEFGGGMLCCMRRTKQVEKNDEDQKISEGGPALFQSDMTFKIFIDGEVNGQKFTIVADGSSKFPHGDFNVHAVCETGKLPMSWKPICHLIQYGEPFFARYPDGISHFAQECFPEGLSIDRTVRFENDGTMTSHHTYELDDTCVVSRITVNCDGFQPDGPIMRDQLVDILPNETHMFPHGPNAVRQLAFIGFTTADGGLMMGHFDSKMTFNGSRAIEIPGPHFVTIITKQMRDTSDKRDHVCQREVAYAHSVPRITSAIGSDEDGGGWLEAAYQRFL
modifications: pRSET-RLuc8.6-KillerRed-Lead peptide

Assays:
Type in all cases: cell-based, human
BT-474 = assay: Cell death with Co-h substrate by cell type (SYTOX Green or EthD-1/DAPI); settings: BT-474, protein 10 μM, Co-h 150 μM for 5 minutes
Procedure: (§1) The cells were seeded at 5×10^5 cells/mL in 96-well plates (SPL Cell Culture Plate, 96 well (SPL, Cat #30096)), and cultured at 37° C. for 24 hours (overnight). After the culture for 24 hours, the cells were washed with FBS & phenol red-free media, and 100 μL of FBS & phenol red-free media containing a purified protein (final concentration: 10 μM) was added, followed by reaction at 37° C. for 24 hours.
(§2) Subsequently, the cells were washed with FBS & phenol red-free media, and 100 μL of FBS & phenol red-free media was added. 100 μL of FBS & Phenol red-free media (RPMI) containing a Co-h substrate solution (final concentration: 150 μM) was added, followed by reaction at 37° C. for 5 minutes.
(§3) After the reaction, 50 μL of SYTOX Green (final concentration: 261 nM) or 90 μL of ethidium homodimer (EthD-1) (final concentration 1×), which stains DNA of dead cells, was added, followed by reaction at 37° C. for 30 minutes. 10 μL of DAPI staining DNA of live cells was added, followed by reaction for 5 minutes. Cell death was confirmed by observing KillerRed, SYTOX Green, MiniSOG, EthD-1 and DAPI fluorescence using a confocal microscope.

MCF-10A = assay: as above; settings: protein 10 μM, Co-h 150 μM for 5 minutes
Procedure: as §1, §2, §3

SK-BR-3 = assay: as above; settings: SK-BR-3, protein 10 μM, Co-h 150 μM for 5 minutes
Procedure: as §1, §2, §3

MCF-7 cells = assay: Cell death according to incubation time per light irradiation time (SYTOX Green/DAPI); settings: MCF-7, protein 10 μM
Procedure: MCF-7 cells were seeded at 5×10^5 cells/mL in a 96-well plate (SPL Cell Culture Plate, 96 well (SPL, Cat #30096)), and cultured at 37° C. for 24 hours (overnight). After the culture for 24 hours, the cells were washed with FBS & Phenol red-free media (RPMI, Well Gene., Korea, Cat #LM011-02), and 100 μL of an FBS-free medium containing the purified protein (final concentration: 10 μM) was added, followed by reaction at 37° C. for 24 hours.
After the reaction for 24 hours, the cells were washed with FBS & Phenol red-free media (RPMI), and then 100 μL of FBS & Phenol red-free media (RPMI) was added again. After light irradiation at 10 mW/cm^2 over time, the cells were incubated at 37° C.
After incubation, 50 μL of SYTOX Green (final concentration: 261 nM) staining DNA of dead cells and 10 μL of DAPI (Vector Laboratories Inc., USA) staining DNA of live cells were added, followed by reaction for 5 minutes. Cell death was confirmed by detecting KillerRed, SYTOX Green and DAPI fluorescence according to the light irradiation time for cells using a confocal microscope.

| Molecule | cell death with Co-h substrate (BT-474) | cell death with Co-h substrate (MCF-10A) | cell death with Co-h substrate (SK-BR-3) | cell incubation time after which the number of cells stained with SYTOX Green increased (MCF-7 cells; light 10 mW/cm^2 for 1 minute) | cell incubation time from which the number of cells stained with SYTOX Green increased (MCF-7 cells; light 10 mW/cm^2 for 5 minutes or 10 minutes) |
| --- | --- | --- | --- | --- | --- |
| B1 | none of the six breast cancer cell lines were killed | none of the six breast cancer cell lines were killed | none of the six breast cancer cell lines were killed |  |  |
| B2 |  |  |  | over 1 hour | approximately 30 minutes |
